From the supplement of paper PMC9170038

Tested on: MS2 coat protein
Experiment: apparent KD of MS2 coat protein; designed switch direction (-1 OFF switch, 1 ON switch): -1; higher = weaker reporter binding
In short: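 Apparent KD, taken as the median over clusters for each design, was obtained by curve-fitting normalised cluster fluorescence. Designed RNA switches had been transcribed on Illumina chips by stalled E. coli RNA polymerase and titrated with SNAP-549-labelled MS2 coat protein, doubling from 0.7 or 1.5 nM to 3 µM.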

[1] = input ligand: microRNA oligo, concentration not stated
[2] = Eterna round: R95, input ligand: FMN 200 uM
[3] = Eterna round: R95, input ligand: microRNA oligo, concentration not stated
[4] = Eterna round: R95, input ligand: none

Row | Sequence | apparent KD of MS2 coat protein (input ligand: FMN 200 uM) | apparent KD of MS2 coat protein [1] | apparent KD of MS2 coat protein (input ligand: none) | apparent KD of MS2 coat protein [2] | apparent KD of MS2 coat protein [3] | apparent KD of MS2 coat protein [4]
1 | AUGGGUCCUCUCGGAGCUACAUGAGGAUCACCCAUGUGUAUUGAGGAUAUCCACUGCUCAGGACUGGAGAAGGCAGUGUACUGU [Ex NG3 #88] (Eterna round: R96, puzzle: Exclusion NG 3) | 56.2 nM | 33.5 nM | 59.9 nM |  |  | 
2 | CUUUAGCAGGUAGGAUAUACGAAGUGUCGGCGAGUAGAAGGACCUGCGAUCCACUUGAGGAUCACCCAAGUUCGCAGGAGAACA [Mutated MS2 EX1.10] (Eterna round: R96, puzzle: Exclusion NG 1) | 103 nM | 35.6 nM | 50.8 nM |  |  | 
3 | AGGAAGCAAGGAUAUACGAGGAGAAGGUGGAGAUUUAAAGGACAUGAGGAUCACCCAUGUAGAAGGUGCGAGAA [JR_Exclu2_Sub046] (puzzle: Exclusion 2) |  |  |  | 79.6 nM | 44.3 nM | 50.4 nM
4 | GGUCGGCGAGGAUAUACAUGAGGAUCACCCAUGUGAUAGAUUGCACGCGUACGUGUAUGUAGAAGGCGCUGACG [JL-ex3-3.30 salish99 mod] (Eterna round: R96, puzzle: Exclusion 3) | 433 nM | 24.7 nM | 32.8 nM |  |  | 
5 | AGUAACUAUCACGAAAGUGAUAGUUACAAAACAAGUGGAACAUGAGGAUCACCCAUGUCCUCAUUUGCUCGUCUUAU [Sensor 3 - 4] (puzzle: Sensor v3, turn-off variant 2) |  |  |  | 107 nM | 238 nM | 166 nM
6 | GUCAGCUCGUGAGGAUAUGCACAUGAGGAUCACCCAUGUAAGAUCAAGCUGCUUCGGCAGCAAGUGCAGAAGGUACGAGCUGAC [ENG2/9-C1] (Eterna round: R96, puzzle: Exclusion NG 2) | 200 nM | 207 nM | 297 nM |  |  | 
7 | CCAGCGUGUGUGAGGAUAUGCUGGUCCUUGGAUCAGCAGAAGGCACAUGAGGAUCACCCAUGUGAGAACGUUGG [JL bmx4 3.33] (puzzle: Brourd's mod of Exclusion 4) |  |  |  |  | 17.6 nM | 
8 | CAUGCACAUGAGGAUCACCCAUGUCAGGAUAUCUAUCAUAGCAUCGAAAGAUGCGGGUAGAGAAGGGACAACCC [ChP Ext 10-04-2015 #10] (puzzle: Exclusion 1) |  |  |  |  | 15.5 nM | 
9 | AGUAGUUACGCAGGAUAUGAGGAUCACCCAUAGAAGGAUAUCGAAAGAGAAGGUCUGAGGAUUACCCAGAAGGGCGUGACUACA [pwkr exNG2 2xF5 2xFMN.5] (Eterna round: R96, puzzle: Exclusion NG 2) | 647 nM | 113 nM | 136 nM |  |  | 
10 | GCCGAAAGUGUGAGGAUAUACCUAUGGAAACAUAGGUAGAAGGCACAUGAGGAUCACCCAUGUGUUUCAACGGC [Mat - Exclusion 4 - Eli Mod - D20] (Eterna round: R97, puzzle: Brourd's mod of Exclusion 4) | 67 nM |  | 24.5 nM |  |  | 
11 | GACUAAAUUUUGUUUGGUUACAUGAGGAUCACCCAUGUUGGUCUAAGAACAUGUCUUUUGUACGCUUGUCUUAUAUA [JR_SV3TOV1_Sub068] (puzzle: Sensor v3, turn-off variant 1) |  |  |  | 76.6 nM | 45.8 nM | 96.3 nM
12 | CGAGCUCAUGUGAGGAUAUACCUAUGGAUACAUAGGUAGAAGGCACAUGAGGAUCACCCAUGUCCUUGAGCUCG [jl-bmx4-4.59 Eli mod] (Eterna round: R97, puzzle: Brourd's mod of Exclusion 4) | 309 nM |  | 50.4 nM |  |  | 
13 | GGUUGGCGAGGAUAUACAUGAGGAUCACCCAUGUGAGAGAAAAUAGUGAGGAAGAAAAGUAGAAGGCGCUGACG [salish99_ex3_r3_014] (puzzle: Exclusion 3) |  |  |  | 98.1 nM | 47.7 nM | 37.5 nM
14 | GAGUGAGCGUGAGGAAUAUACAUGAGGAUCACCCAUGUUUGCUAAUAUAUUGCUCGUCUUAUAACAACAAUUAACUG [Mod-hoo-honey#ab] (Eterna round: R97, puzzle: Sensor, turn-off variant 1) | 12.6 nM |  | 13.7 nM |  |  | 
15 | CUCCGGCGUGUAGGAUAUGGUUCCGUUUUGGUUCCAGAAGGACAUGAGGAUCACCCAUGUACAUGUCGUCGGUCGUCACCGGGC [salish99_ExNG1_r04_214] (Eterna round: R96, puzzle: Exclusion NG 1) | 104 nM | 22.2 nM | 29.8 nM |  |  | 
16 | ACAUCACAGCUAGGAUAUAGAUGACAUGAGGAUCACCCAUGUUAUCCCAUGUUGACGGAAACCGACUAGAAGGAGCUACAGAUG [Ex NG2 #7] (Eterna round: R96, puzzle: Exclusion NG 2) | 129 nM | 41.8 nM | 47.9 nM |  |  | 
17 | GCUGGUCAAGGAUAUACAUGAGGAUCACCCAUGUGAUUAGCAGUCCUCGGACUGCAAUGUAGAAGGUGACCAGC [E3/2-C1] (Eterna round: R97, puzzle: Exclusion 3) | 1410 nM |  | 308 nM |  |  | 

Row | Sequence | apparent KD of MS2 coat protein (input ligand: FMN 200 uM) | apparent KD of MS2 coat protein [1] | apparent KD of MS2 coat protein (input ligand: none) | apparent KD of MS2 coat protein [2] | apparent KD of MS2 coat protein [3] | apparent KD of MS2 coat protein [4]
18 | GUAACAUGCUGGUGAUCAUACAUGAGGAUCACCCAUGUAACAAGCUUUUUGUUCGUCUUAUAAGAUUACUAGUAUGU [Stov1/10-B2] (Eterna round: R97, puzzle: Sensor, turn-off variant 1) | 33 nM |  | 39.7 nM |  |  | 
19 | UCUCUUGGGCAAGGAUAUCCUGCGCGGUUCCGGUUCGUGUCUGUCACAUGAGGAUCACCCAUGUGGGAGAAGGUGCCUGCGGUG [Design 75] (Eterna round: R96, puzzle: Exclusion NG 2) | 32.5 nM | 15.8 nM | 17.3 nM |  |  | 
20 | GCAUCCAUAGUGAGGAUAUACCUCUGGAUACAUAGGUAGAAGGCACAUGAGGAUCACCCAUGUUCUUAGGAUGC [Fiskers BMX 4 - 34] (puzzle: Brourd's mod of Exclusion 4) |  |  |  |  | 23.9 nM | 
21 | AAGUAGGCAGGAUAUACAUGAGGAUCACCCAUGUGCCCAUGAAAGGUACUUUCGAAAGGUAGAAGGGCCUACAA [ChP 13.04.2015 #5] (puzzle: Exclusion 3) |  |  |  |  | 14.6 nM | 
22 | AUGCCCUGAGGAUAUCUCAUCCCGCACAUGAGGAUCACCCAUGUUCUUCUCCGGGUUUCGAGAGAAGGCAGGCCUA [Armus4] (Eterna round: R97, puzzle: Exclusion 5) | 79.4 nM |  | 249 nM |  |  | 
23 | CCUCAUAUUUAGGAUAUGAUUGGUAAUUAUUAGUUAGAAGGAGGUACAUGAGGAUCACCCAUGUAAAAUUUUUU [-13.7, -10.8 kcal, 32% A] (Eterna round: R97, puzzle: Exclusion 6) | 19.7 nM |  | 19.6 nM |  |  | 
24 | GAAAAGGUAGGAUAUACGAAAAAAAAGGGUAGAAAAAUAACACAUGAGGAUCACCCAUGUAGAAGGACCAAAAG [salish99_ex2_r3_074] (puzzle: Exclusion 2) |  |  |  | 111 nM | 23 nM | 29 nM
25 | UUAUACGGUGAGGAUAUCUUCACUAAAGUGUGAAGAGAAGGCGCUACAUGAGGAUCACCCAUGUCUAUGGGCAG [Ex-6 Malc#17] (puzzle: Exclusion 6) |  |  |  | 118 nM | 187 nM | 156 nM
26 | UAUAUAUAGUAAGGAUAUGUAAUCAUUUUAUAAACAGAAGGUACUGACAUGAGGAUCACCCAUGUUUUAGUGUGGGCAUGUAGA [JMF's solution 31] (Eterna round: R96, puzzle: Exclusion NG 1) |  | 64.6 nM |  |  |  | 
27 | GAACUGAGGCAAAGCUUUAGUCGUACAUGAGGAUCACCCAUGUAGGAUAUGGUAGGCUUUGCUUACCAGAAGGACAGAGUGAUC [Mat - Exclusion NG 3 - Mod of JL - D59] (Eterna round: R96, puzzle: Exclusion NG 3) |  | 76.3 nM |  |  |  | 
28 | GCGGGCUUGGGAGGAUAUACAUGAGGAUCACCCAUGUGUGUUCGGGCUGGCCGGUUUGGGCGCGUGUAGAAGGCUCGGGUUUGC [less GC, A 14%] (Eterna round: R96, puzzle: Exclusion NG 2) | 25.1 nM | 13.4 nM | 16.1 nM |  |  | 
29 | UUCUGCACGCUGCGGUCCUACAUGAGGAUCACCCAUGUGGUCUGGUGGCGUGGGUCGCCGGACUUGGCUCGUCUUGG [salish99_S_TOV1_R5_049] (Eterna round: R97, puzzle: Sensor, turn-off variant 1) | 15.4 nM |  | 14.9 nM |  |  | 
30 | ACAAGAGCGGAAGGAUAUUUUACAUGAGGAUCACCCAUGUAAUAAAUGAGGAUCACGGAUGUAGUAAAGAAGGUCCGGAUAAGA [Ostracism 2 - Jieux - Exclusion NG 2] (Eterna round: R96, puzzle: Exclusion NG 2) |  | 18.4 nM |  |  |  | 
31 | GGUAAGUGUGACUUGGGUGACAUGAGGAUCACCCAUGUCACAAGCUUGUUGCUCGCCUUGUAAUUAACCCAUGUCAC [LRO Sensor-off var1-28 mod of Stov1-13-A1 by Brourd] (Eterna round: R97, puzzle: Sensor, turn-off variant 1) | 17.3 nM |  | 18.6 nM |  |  | 
32 | GUCACUAGAGGAUAUACAAUGGUAUAUGAUCCUAGUGACAAACAUGAGGAUCACCCAUGUAGAAGGCUAGUAAA [Exclusion 2 - 2] (puzzle: Exclusion 2) |  |  |  | 24.5 nM | 28.3 nM | 28 nM
33 | AGUUGGCGAGGAUAUACAUGAGGAUCACCCAUGUGAAAUAUAAUAGUGAGGAAGAAAAGUAGAAGGCGCUGACA [Mat - Exclusion 3 - Mod of Salish D42] (puzzle: Exclusion 3) |  |  |  |  | 42.7 nM | 
